Assay results taken from patent US20240166767A1 (SCIRHOM, published 2024).

T1: human iRhom2 full length wild type C-terminally tagged with 3 consecutive copies of the T7 epitope (UniProt Q6PJF5 1-856)
T1 chain: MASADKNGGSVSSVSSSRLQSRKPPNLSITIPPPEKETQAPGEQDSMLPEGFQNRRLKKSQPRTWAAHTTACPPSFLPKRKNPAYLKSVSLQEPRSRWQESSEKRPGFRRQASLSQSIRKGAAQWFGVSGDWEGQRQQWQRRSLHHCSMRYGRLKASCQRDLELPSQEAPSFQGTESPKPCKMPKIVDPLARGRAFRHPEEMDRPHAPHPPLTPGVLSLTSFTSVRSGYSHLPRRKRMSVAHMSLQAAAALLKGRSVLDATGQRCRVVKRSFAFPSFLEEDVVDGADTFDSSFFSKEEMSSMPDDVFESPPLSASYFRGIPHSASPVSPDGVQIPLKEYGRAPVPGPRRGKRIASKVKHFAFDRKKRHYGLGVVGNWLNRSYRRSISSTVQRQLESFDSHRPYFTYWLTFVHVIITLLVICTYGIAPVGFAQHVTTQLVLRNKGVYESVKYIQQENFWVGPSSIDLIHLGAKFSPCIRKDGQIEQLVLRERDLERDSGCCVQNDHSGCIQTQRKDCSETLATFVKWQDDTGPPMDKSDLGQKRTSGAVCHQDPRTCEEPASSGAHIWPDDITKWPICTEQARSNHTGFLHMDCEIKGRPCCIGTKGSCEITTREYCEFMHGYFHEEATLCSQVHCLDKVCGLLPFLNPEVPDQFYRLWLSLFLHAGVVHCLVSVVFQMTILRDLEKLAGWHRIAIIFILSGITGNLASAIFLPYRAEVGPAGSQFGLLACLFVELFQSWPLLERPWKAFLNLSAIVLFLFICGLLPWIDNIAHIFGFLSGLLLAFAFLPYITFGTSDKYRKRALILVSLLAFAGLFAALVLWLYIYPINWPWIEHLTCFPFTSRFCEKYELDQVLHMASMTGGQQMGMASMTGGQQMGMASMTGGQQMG

T2: dog iRhom2 full length wild type C-terminally tagged with 3 consecutive copies of the T7 epitope (dog, UniProt Q00M95 1-827)
T2 construct: whole, on cells; also called dog-iR2-FL-WT-T7; expressed by MEF-DKO-Dog-iR2-FL-WT-T7 cells
T2 sequence: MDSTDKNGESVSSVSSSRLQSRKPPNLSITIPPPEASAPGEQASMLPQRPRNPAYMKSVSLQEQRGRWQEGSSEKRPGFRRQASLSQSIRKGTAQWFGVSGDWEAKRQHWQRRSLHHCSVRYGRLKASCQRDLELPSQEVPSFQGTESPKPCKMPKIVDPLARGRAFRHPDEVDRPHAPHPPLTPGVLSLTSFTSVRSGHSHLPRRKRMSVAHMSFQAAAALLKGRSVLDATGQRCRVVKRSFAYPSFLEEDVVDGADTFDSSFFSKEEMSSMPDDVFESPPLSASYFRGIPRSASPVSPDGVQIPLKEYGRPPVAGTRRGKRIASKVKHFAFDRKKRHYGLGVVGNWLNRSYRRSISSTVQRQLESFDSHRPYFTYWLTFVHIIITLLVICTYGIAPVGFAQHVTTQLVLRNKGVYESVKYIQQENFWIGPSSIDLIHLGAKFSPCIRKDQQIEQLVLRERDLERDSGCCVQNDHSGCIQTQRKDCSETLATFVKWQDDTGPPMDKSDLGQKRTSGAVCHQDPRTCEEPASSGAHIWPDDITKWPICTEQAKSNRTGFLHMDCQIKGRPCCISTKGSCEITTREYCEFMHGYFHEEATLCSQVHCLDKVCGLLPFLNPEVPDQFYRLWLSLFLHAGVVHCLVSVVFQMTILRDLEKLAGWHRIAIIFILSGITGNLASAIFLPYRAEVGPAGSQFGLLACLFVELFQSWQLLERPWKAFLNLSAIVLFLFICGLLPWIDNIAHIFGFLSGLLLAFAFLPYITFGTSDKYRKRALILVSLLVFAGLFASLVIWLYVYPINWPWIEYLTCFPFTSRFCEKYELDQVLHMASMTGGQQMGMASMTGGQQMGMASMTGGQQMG


How the values were obtained:
[1] = molecular target: T1, human iRhom2 full length wild type …; test: FACS Scatchard
[2] = molecular target: T2, dog iRhom2 full length wild type …; test: FACS on MEF-DKO-Dog-iR2-FL-WT-T7 cells, 3 µg/ml
Protocol: (§1) In brief, immortalized MEF-DKO-EV control cells, MEF-DKO-rhesus-iR2-FL-WT-T7 cells, MEF-DKO-cyno-iR2-FL-WT-T7 cells, MEF-DKO-dog-iR2-FL-WT-T7 cells and MEF-DKO-rabbit-iR2-FL-WT-T7 cells, as well as their respective iRhom1 counterparts, were harvested with 10 mM EDTA in PBS, washed and resuspended in FACS buffer (PBS, 3% FBS, 0.05% sodium azide), and seeded in Nunc U-bottom 96-well plates (Thermo Fisher Scientific, USA) at approximately 3×10⁵ cells per well. To pellet cells and remove supernatants, the plates were centrifuged at 1,500 rpm and 4° C. for 3 minutes. For primary staining, cells were resuspended in 100 μl per well of either FACS buffer alone (controls), mouse monoclonal anti-T7 IgG (Merck Millipore, USA) at 3 μg/ml FACS buffer or the antibodies of the invention also at 3 μg/ml FACS buffer and incubated on ice for 1 hour. Afterwards, plates were centrifuged at 1,500 rpm and 4° C. for 3 minutes and washed twice with 200 μl per well of FACS buffer. For secondary staining of previous anti T7 staining, cells were spun down and resuspended in 100 μl per well of PE-conjugated goat anti-mouse IgG F(ab′)2 detection fragment (Dianova, Germany) diluted 1:100 in FACS buffer. For secondary staining of previous staining with humanized antibodies of invention, cells were spun down and resuspended in 100 μl per well of PE-conjugated goat anti-human IgG F(ab′)2 detection fragment (Dianova, Germany) diluted 1:100 in FACS buffer. Protected from light, the cell suspensions were incubated on ice for 1 hour. Plates were then centrifuged at 1,500 rpm and 4° C. for 3 minutes and washed three times with 200 μl per well of FACS buffer. Finally, cells were resuspended in 150 μl per well of FACS buffer and analyzed using a BD Accuri™ C6 Plus flow cytometer (Becton Dickinson, Germany).

[3] = molecular target: T2, dog iRhom2 full length wild type …; test: FACS on MEF-DKO-Dog-iR2-FL-WT-T7 cells
Protocol: as §1, with “For secondary staining of previous staining with humanized antibodies of invention, cells were spun down and resuspended in 100 μl per well of PE-conjugated goat anti-human IgG F(ab′)2 detection fragment (Dianova, Germany) diluted 1:100 in FACS buffer. Protected from light, the cell suspensions were incubated on ice for 1 hour. Plates were then centrifuged at 1,500 rpm and 4° C. for 3 minutes and washed three times with 200 μl per well of FACS buffer.” left out

| Binder | Kd [1] [pM] | binding result [2] | binding result [3] |
| --- | --- | --- | --- |
| humanized antibody 16-B-07 (antibody, V domains shown, Tested as whole humanized antibody produced in CHO cells and detected with anti-human IgG; the general methods speak of human IgG1/Kappa; also called clone 16-B-07) VH: QVTLRESGPALVKPTQTLTLTCTFSGFSLSTFALGVGWIRQPPGKALEWLAHIWWDEDKYYNPALKSRLTISKDTSKNQVVLTITNMDPVDTATYYCARITTYYYGMDYWGQGTLVTVSS VL: EIVMTQSPDFQSVTPKEKVTITCRASQSIGNHLHWYQQKPDASPKLLIKYASQSISGVPSRFSGSGSGTDFTLTINSLEAEDAATYFCQQSYQWPLTFGQGTKLEIK | 990 | binds |  |
| humanized antibody 16-B-03 (antibody, V domains shown, Tested as whole humanized antibody produced in CHO cells and detected with anti-human IgG; the general methods speak of human IgG1/Kappa; also called clone 16-B-03) VH: QVTLRESGPALVKPTQTLTLTCTFSGFSLSTFALGVGWIRQPPGKALEWLAHIWWDDDKYYNPALKSRLTISKDTSKNQVVLTITNMDPVDTATYYCARITTYYYGMDYWGQGTLVTVSS VL: EIVMTQSPDFQSVTPKEKVTITCRASQSIGNHLHWYQQKPDASPKLLIKYASQSISGVPSRFSGSGSGTDFTLTINSLEAEDAATYFCQQSYQWPLTFGQGTKLEIK | 670 |  | binds |
| humanized antibody 16-B-05 (antibody, V domains shown, Tested as whole humanized antibody produced in CHO cells and detected with anti-human IgG; the general methods speak of human IgG1/Kappa; The printed LCVD reads SRESGSG where the printed cDNA encodes SRFSGSG; also called clone 16-B-05) VH: QVTLRESGPALVKPTQTLTLTCTFSGFSLSTFALGVGWIRQPPGKALEWLAHIWWDEDKYYNPALKSRLTISKDTSKNQVVLTITNMDPVDTATYYCARITTYYYGMDYWGQGTLVTVSS VL: EIVMTQSPDFQSVTPKEKVTITCRASQSIGNHLHWYQQKPDASPKLLIKYASQSISGVPSRFSGSGSGTDFTLTINSLEAEDAATYFCQQSYNWPLTFGQGTKLEIK | 1070 | binds |  |
| humanized antibody 42-B-04 (antibody, V domains shown, Tested as whole humanized antibody produced in CHO cells and detected with anti-human IgG; the general methods speak of human IgG1/Kappa; also called clone 42-B-04) VH: QVTLRESGPALVKPTQTLTLTCTFSGFSLSTFGRGVGWIRQPPGKALEWLAHIWWDDEKYYNSALKSRLTISKDTSKNQVVLTITNMDPVDTATYYCARIQNYGSNYWYFDVWGQGTLVTVSS VL: AIQLTQSPSSLSASVGDRVTITCRASSRISYMFWYQQKPGKAPKVLIYDTSNLASGVPSRFSGSGSGTDYTLTISSLQPEDFATYYCQQWNAYPLTFGQGTKLEIK | 480 | binds |  |
| humanized antibody 42-B-02 (antibody, V domains shown, Tested as whole humanized antibody from transient expression of heavy chain/kappa light chain pairs in CHO cells, detected with anti-human IgG; the general methods speak of human IgG1/Kappa; also called clone 42-B-02) VH: QVTLRESGPALVKPTQTLTLTCTFSGFSLSTFGRGVGWIRQPPGKALEWLAHIWWDDEKYYNSALKSRLTISKDTSKNQVVLTITNMDPVDTATYYCARIQNYGSNYWYFDVWGQGTLVTVSS VL: AIQLTQSPSSLSASVGDRVTITCRASSRISYMFWYQQKPGKAPKVLIYDTSNLASGVPSRFSGSGSGTDYTLTISSLQPEDFATYYCQQWNSYPLTFGQGTKLEIK | 500 | binds |  |
| humanized antibody 23-B-04 (antibody, V domains shown, Tested as whole humanized antibody produced in CHO cells and detected with anti-human IgG; the general methods speak of human IgG1/Kappa; also called clone 23-B-04) VH: QVTLRESGPALVKPTQTLTLTCTFSGFSLSTFGMGVGWIRQPPGKALEWLAHIWWDDEKYYNSALKSRLTISKDTSKNQVVLTITNMDPVDTATYYCARISNYGSNYWYFNVWGQGTLVTVSS VL: AIQLTQSPSSLSASVGDRVTITCRASSSVSYMYWYQQKPGKAPKVLIYDTSNLASGVPSRFSGSGSGTDYTLTISSLQPEDFATYYCQQWNAYPLTFGQGTKLEIK | 580 | binds |  |
